The text below walks through data of patent US20110269817A1 (University of California, published 2011).

This assay concerns the target Myc-tagged PER2 (transfected in JEG3 cells) (UniProt O54943 1-1257, limits assumed). The experiment in a line: coimmunoprecipitation with FLAG antibody from cotransfected JEG3 cells, Western with anti-Myc (FIG. 5A). The protocol: (A) JEG3 cells were cotransfected with a series of expression vectors as described. Flag-tagged SIRT1 proteins were immunoprecipitated by FLAG antibody, and abundance of coimmunoprecipitated proteins was determined by western blotting using anti-Myc antibody (top right panel) and anti-SIRT1 antibody (bottom right panel). Left panels show the immunoblotting results of total cell lysates as an input.

Myc-tagged PER2 (transfected in JEG3 cells), sequence (O54943 whole entry): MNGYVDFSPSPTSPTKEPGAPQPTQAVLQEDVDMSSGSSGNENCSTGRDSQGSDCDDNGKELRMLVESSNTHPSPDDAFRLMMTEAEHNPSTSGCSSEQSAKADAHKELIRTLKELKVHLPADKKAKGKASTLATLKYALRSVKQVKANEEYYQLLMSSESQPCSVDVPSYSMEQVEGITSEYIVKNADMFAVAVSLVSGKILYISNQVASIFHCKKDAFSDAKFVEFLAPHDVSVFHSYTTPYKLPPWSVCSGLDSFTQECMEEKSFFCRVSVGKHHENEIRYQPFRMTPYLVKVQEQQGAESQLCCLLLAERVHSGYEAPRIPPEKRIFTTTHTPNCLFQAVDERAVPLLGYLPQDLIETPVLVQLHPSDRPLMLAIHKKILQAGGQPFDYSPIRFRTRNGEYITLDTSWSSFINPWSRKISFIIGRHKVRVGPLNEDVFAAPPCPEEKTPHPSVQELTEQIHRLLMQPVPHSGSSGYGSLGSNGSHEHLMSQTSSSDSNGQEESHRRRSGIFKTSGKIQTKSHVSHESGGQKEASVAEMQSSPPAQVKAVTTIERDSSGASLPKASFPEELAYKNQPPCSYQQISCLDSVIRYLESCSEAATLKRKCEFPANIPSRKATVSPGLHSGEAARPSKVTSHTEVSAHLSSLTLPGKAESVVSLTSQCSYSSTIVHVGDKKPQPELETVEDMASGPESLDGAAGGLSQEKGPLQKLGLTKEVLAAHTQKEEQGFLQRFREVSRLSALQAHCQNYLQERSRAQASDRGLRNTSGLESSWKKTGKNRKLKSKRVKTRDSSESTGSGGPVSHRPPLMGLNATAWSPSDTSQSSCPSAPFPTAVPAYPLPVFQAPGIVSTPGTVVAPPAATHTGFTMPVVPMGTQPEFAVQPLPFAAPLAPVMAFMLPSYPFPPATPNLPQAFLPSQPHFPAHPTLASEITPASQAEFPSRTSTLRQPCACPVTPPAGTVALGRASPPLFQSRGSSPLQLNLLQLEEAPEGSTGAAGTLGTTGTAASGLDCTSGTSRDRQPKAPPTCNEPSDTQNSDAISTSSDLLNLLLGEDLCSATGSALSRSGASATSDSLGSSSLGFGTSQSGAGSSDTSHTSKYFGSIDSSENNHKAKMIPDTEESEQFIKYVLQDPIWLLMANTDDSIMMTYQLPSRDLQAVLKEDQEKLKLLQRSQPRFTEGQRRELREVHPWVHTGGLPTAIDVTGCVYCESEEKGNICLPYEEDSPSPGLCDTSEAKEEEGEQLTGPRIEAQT

B1: Flag-tagged SIRT1 (transfected in JEG3 cells) (enzyme, mouse, UniProt Q923E4 1-737, looked up, not shown: small tags and cut ends)
chain: MADEVALALQAAGSPSAAAAMEAASQPADEPLRKRPRRDGPGLGRSPGEPSAAVAPAAAGCEAASAAAPAALWREAAGAAASAEREAPATAVAGDGDNGSGLRREPRAADDFDDDEGEEEDEAAAAAAAAAIGYRDNLLLTDGLLTNGFHSCESDDDDRTSHASSSDWTPRPRIGPYTFVQQHLMIGTDPRTILKDLLPETIPPPELDDMTLWQIVINILSEPPKRKKRKDINTIEDAVKLLQECKKIIVLTGAGVSVSCGIPDFRSRDGIYARLAVDFPDLPDPQAMFDIEYFRKDPRPFFKFAKEIYPGQFQPSLCHKFIALSDKEGKLLRNYTQNIDTLEQVAGIQRILQCHGSFATASCLICKYKVDCEAVRGDIFNQVVPRCPRCPADEPLAIMKPEIVFFGENLPEQFHRAMKYDKDEVDLLIVIGSSLKVRPVALIPSSIPHEVPQILINREPLPHLHFDVELLGDCDVIINELCHRLGGEYAKLCCNPVKLSEITEKPPRPQKELVHLSELPPTPLHISEDSSSPERTVPQDSSVIATLVDQATNNNVNDLEVSESSCVEEKPQEVQTSRNVENINVENPDFKAVGSSTADKNERTSVAETVRKCWPNRLAKEQISKRLEGNQYLFVPPNRYIFHGAEVYSDSEDDVLSSSSCGSNSDSGTCQSPSLEEPLEDESEIEEFYNGLEDDTERPECAGGSGFGADGGDQEVVNEAIATRQELTDVNYPSDKS
notes: The plasmid list holds a mouse N-terminal FLAG construct and also Flag-hSIRT1/pECE, so the species used in these experiments is not certain; also called Flag-SIRT1
B1: the binding result is recorded as “no binding”.
